# In patent publication US20140179594A1, “STREPTOCOCCUS BACTERIOPHAGE LYSINS FOR TREATMENT OF GRAM POSITIVE BACTERIA IN COMPANION ANIMALS AND LIVESTOCK” (priority 2011, published 2014):
# Experiments:
# Assay in all cases: ΔPlySs1 OD600 lysis, 1 hr
# Assay type in all cases: cell-based
# S. suis ST7 = test system: S. suis ST7
# Method: (§1) Given the above experiments, the following optimal buffering conditions were employed for all further in vitro experiments with ΔPlySs1: 20 mM phosphate buffer, pH=7.8, 2 mM EDTA. A range of lysin concentrations, from 6.5-130 μg/ml, were introduced to live S. suis cells in this buffer. Three strains were considered particularly relevant: 7711, the serotype 7 strain that encodes PlySs1; 5735, the serotype 2 reference strain; and 7997, a highly virulent serotype 9 strain. In terms of bacterial viability, only the highest PlySs1-concentration (130 μg/ml) led to a >90% decrease in CFUs for 7711, S735, and 7997 after 1 hr treatment (TABLE 2). The lysin was also tested against actively-dividing cells in broth culture (strain 7711) (FIG. 20).
# (§2) ΔPlySs1 was further tested against a panel of 19 other S. suis strains of diverse serotypes, as well as other species of Gram-positive bacteria. The same lysin concentrations were used as above. For each dosage, the observed lysis values after 1 hr are listed in TABLE 3 and TABLE 4, and the information is summarized graphically in FIG. 21.
# S. suis ST3 = test system: S. suis ST3
# Method: as §1, §2
# S. suis ST10 = test system: S. suis ST10
# Method: as §1, §2
# S. suis 8076 (ST9) = test system: S. suis 8076 (ST9)
# Method: as §1, §2
# S. suis ST14 = test system: S. suis ST14
# Method: as §1, §2
# S. suis 6112 (ST1) = test system: S. suis 6112 (ST1)
# Method: as §1, §2
# S. suis ST11 = test system: S. suis ST11
# Method: as §1, §2
# S. suis ST8 = test system: S. suis ST8
# Method: as §1, §2
# S. suis 10 (ST2) = test system: S. suis 10 (ST2)
# Method: as §1, §2
# S. suis 6388 (ST1) = test system: S. suis 6388 (ST1)
# Method: as §1, §2
# S. suis ST1 = test system: S. suis ST1
# Method: as §1, §2
# S. suis 7197 (ST7) = test system: S. suis 7197 (ST7)
# Method: as §1, §2
# S. suis ST2 = test system: S. suis ST2
# Method: as §1, §2
# S. suis ST4 = test system: S. suis ST4
# Method: as §1, §2
# S. suis ST13 = test system: S. suis ST13
# Method: as §1, §2
# S. suis ST9 = test system: S. suis ST9
# Method: as §1, §2
# S. suis ST5 = test system: S. suis ST5
# Method: as §1, §2
# S. suis ST6 = test system: S. suis ST6
# Method: as §1, §2
# S. pyogenes A486 = test system: S. pyogenes A486
# E. faecalis V583 = test system: E. faecalis V583
# S. epidermidis HN1292 = test system: S. epidermidis HN1292
molecule,measurement,setting,value
"ΔPlySs1: truncated PlySs1 lysin with N-terminal enzymatic and central binding domains, N-terminal 254 amino acids, SEQ ID NO:2 (protein, listed as Streptococcus suis) MTINLETSIRWMSDRVGKVSYSMDYRNGPNSYDCSSAVYYALMAGGAISAGWAVNTEYMHDWLIRNGYVLVAENKPFNAQRHDVCILGKRGYSSGAGGHVVIFVDNVNVIHCNYARNGISIDNYNQVHRGMYYYLYRPANQPSISNKSLDQLVKETLAGVHGNGDTRKASLGSQYEAVMAVINGKASASEKSDEELAREVLAGKHGAGEDRKRSLGPRYEPVQAKVNELLKAKEKPSETAKNEPQTVQFKEDGDL",1-hour treated/untreated OD600-ratio,S. suis ST7; 6.5 μg/ml,0.65
same,1-hour treated/untreated OD600-ratio,S. suis ST7; 13 μg/ml,0.47
same,1-hour treated/untreated OD600-ratio,S. suis ST7; 30 μg/ml,0.34
same,1-hour treated/untreated OD600-ratio,S. suis ST7; 65 μg/ml,0.22
same,1-hour treated/untreated OD600-ratio,S. suis ST7; 130 μg/ml,0.11
same,1-hour treated/untreated OD600-ratio,S. suis ST3; 6.5 μg/ml,0.81
same,1-hour treated/untreated OD600-ratio,S. suis ST3; 13 μg/ml,0.71
same,1-hour treated/untreated OD600-ratio,S. suis ST3; 30 μg/ml,0.48
same,1-hour treated/untreated OD600-ratio,S. suis ST3; 65 μg/ml,0.32
same,1-hour treated/untreated OD600-ratio,S. suis ST3; 130 μg/ml,0.16
same,1-hour treated/untreated OD600-ratio,S. suis ST10; 6.5 μg/ml,0.85
same,1-hour treated/untreated OD600-ratio,S. suis ST10; 13 μg/ml,0.72
same,1-hour treated/untreated OD600-ratio,S. suis ST10; 30 μg/ml,0.55
same,1-hour treated/untreated OD600-ratio,S. suis ST10; 65 μg/ml,0.44
same,1-hour treated/untreated OD600-ratio,S. suis ST10; 130 μg/ml,0.28
same,1-hour treated/untreated OD600-ratio,S. suis 8076 (ST9); 6.5 μg/ml,0.52
same,1-hour treated/untreated OD600-ratio,S. suis 8076 (ST9); 13 μg/ml,0.40
same,1-hour treated/untreated OD600-ratio,S. suis 8076 (ST9); 30 μg/ml,0.21
same,1-hour treated/untreated OD600-ratio,S. suis 8076 (ST9); 65 μg/ml,0.14
same,1-hour treated/untreated OD600-ratio,S. suis 8076 (ST9); 130 μg/ml,0.04
same,1-hour treated/untreated OD600-ratio,S. suis ST14; 6.5 μg/ml,0.79
same,1-hour treated/untreated OD600-ratio,S. suis ST14; 13 μg/ml,0.57
same,1-hour treated/untreated OD600-ratio,S. suis ST14; 30 μg/ml,0.33
same,1-hour treated/untreated OD600-ratio,S. suis ST14; 65 μg/ml,0.15
same,1-hour treated/untreated OD600-ratio,S. suis ST14; 130 μg/ml,0.06
same,1-hour treated/untreated OD600-ratio,S. suis 6112 (ST1); 6.5 μg/ml,0.14
same,1-hour treated/untreated OD600-ratio,S. suis 6112 (ST1); 13 μg/ml,0.11
same,1-hour treated/untreated OD600-ratio,S. suis 6112 (ST1); 30 μg/ml,0.06
same,1-hour treated/untreated OD600-ratio,S. suis 6112 (ST1); 65 μg/ml,0.02
same,1-hour treated/untreated OD600-ratio,S. suis 6112 (ST1); 130 μg/ml,0.01
same,1-hour treated/untreated OD600-ratio,S. suis ST11; 6.5 μg/ml,0.64
same,1-hour treated/untreated OD600-ratio,S. suis ST11; 13 μg/ml,0.47
same,1-hour treated/untreated OD600-ratio,S. suis ST11; 30 μg/ml,0.32
same,1-hour treated/untreated OD600-ratio,S. suis ST11; 65 μg/ml,0.19
same,1-hour treated/untreated OD600-ratio,S. suis ST11; 130 μg/ml,0.07
same,1-hour treated/untreated OD600-ratio,S. suis ST8; 6.5 μg/ml,0.25
same,1-hour treated/untreated OD600-ratio,S. suis ST8; 13 μg/ml,0.12
same,1-hour treated/untreated OD600-ratio,S. suis ST8; 30 μg/ml,0.06
same,1-hour treated/untreated OD600-ratio,S. suis ST8; 65 μg/ml,0.03
same,1-hour treated/untreated OD600-ratio,S. suis ST8; 130 μg/ml,0.03
same,1-hour treated/untreated OD600-ratio,S. suis 10 (ST2); 6.5 μg/ml,0.29
same,1-hour treated/untreated OD600-ratio,S. suis 10 (ST2); 13 μg/ml,0.18
same,1-hour treated/untreated OD600-ratio,S. suis 10 (ST2); 30 μg/ml,0.10
same,1-hour treated/untreated OD600-ratio,S. suis 10 (ST2); 65 μg/ml,0.05
same,1-hour treated/untreated OD600-ratio,S. suis 10 (ST2); 130 μg/ml,0.02
same,1-hour treated/untreated OD600-ratio,S. suis 6388 (ST1); 6.5 μg/ml,0.15
same,1-hour treated/untreated OD600-ratio,S. suis 6388 (ST1); 13 μg/ml,0.13
same,1-hour treated/untreated OD600-ratio,S. suis 6388 (ST1); 30 μg/ml,0.06
same,1-hour treated/untreated OD600-ratio,S. suis 6388 (ST1); 65 μg/ml,0.03
same,1-hour treated/untreated OD600-ratio,S. suis 6388 (ST1); 130 μg/ml,0.02
same,1-hour treated/untreated OD600-ratio,S. suis ST1; 6.5 μg/ml,0.80
same,1-hour treated/untreated OD600-ratio,S. suis ST1; 13 μg/ml,0.34
same,1-hour treated/untreated OD600-ratio,S. suis ST1; 30 μg/ml,0.36
same,1-hour treated/untreated OD600-ratio,S. suis ST1; 65 μg/ml,0.19
same,1-hour treated/untreated OD600-ratio,S. suis ST1; 130 μg/ml,0.06
same,1-hour treated/untreated OD600-ratio,S. suis 7197 (ST7); 6.5 μg/ml,0.64
same,1-hour treated/untreated OD600-ratio,S. suis 7197 (ST7); 13 μg/ml,0.49
same,1-hour treated/untreated OD600-ratio,S. suis 7197 (ST7); 30 μg/ml,0.39
same,1-hour treated/untreated OD600-ratio,S. suis 7197 (ST7); 65 μg/ml,0.16
same,1-hour treated/untreated OD600-ratio,S. suis 7197 (ST7); 130 μg/ml,0.07
same,1-hour treated/untreated OD600-ratio,S. suis ST2; 6.5 μg/ml,0.79
same,1-hour treated/untreated OD600-ratio,S. suis ST2; 13 μg/ml,0.70
same,1-hour treated/untreated OD600-ratio,S. suis ST2; 30 μg/ml,0.49
same,1-hour treated/untreated OD600-ratio,S. suis ST2; 65 μg/ml,0.34
same,1-hour treated/untreated OD600-ratio,S. suis ST2; 130 μg/ml,0.17
same,1-hour treated/untreated OD600-ratio,S. suis ST4; 6.5 μg/ml,0.63
same,1-hour treated/untreated OD600-ratio,S. suis ST4; 13 μg/ml,0.47
same,1-hour treated/untreated OD600-ratio,S. suis ST4; 30 μg/ml,0.32
same,1-hour treated/untreated OD600-ratio,S. suis ST4; 65 μg/ml,0.22
same,1-hour treated/untreated OD600-ratio,S. suis ST4; 130 μg/ml,0.12
same,1-hour treated/untreated OD600-ratio,S. suis ST13; 6.5 μg/ml,0.32
same,1-hour treated/untreated OD600-ratio,S. suis ST13; 13 μg/ml,0.17
same,1-hour treated/untreated OD600-ratio,S. suis ST13; 30 μg/ml,0.04
same,1-hour treated/untreated OD600-ratio,S. suis ST13; 65 μg/ml,0.02
same,1-hour treated/untreated OD600-ratio,S. suis ST13; 130 μg/ml,0.02
same,1-hour treated/untreated OD600-ratio,S. suis ST9; 6.5 μg/ml,0.50
same,1-hour treated/untreated OD600-ratio,S. suis ST9; 13 μg/ml,0.30
same,1-hour treated/untreated OD600-ratio,S. suis ST9; 30 μg/ml,0.23
same,1-hour treated/untreated OD600-ratio,S. suis ST9; 65 μg/ml,0.13
same,1-hour treated/untreated OD600-ratio,S. suis ST9; 130 μg/ml,0.05
same,1-hour treated/untreated OD600-ratio,S. suis ST5; 6.5 μg/ml,0.78
same,1-hour treated/untreated OD600-ratio,S. suis ST5; 13 μg/ml,0.59
same,1-hour treated/untreated OD600-ratio,S. suis ST5; 30 μg/ml,0.39
same,1-hour treated/untreated OD600-ratio,S. suis ST5; 65 μg/ml,0.22
same,1-hour treated/untreated OD600-ratio,S. suis ST5; 130 μg/ml,0.10
same,1-hour treated/untreated OD600-ratio,S. suis ST6; 6.5 μg/ml,0.76
same,1-hour treated/untreated OD600-ratio,S. suis ST6; 13 μg/ml,0.56
same,1-hour treated/untreated OD600-ratio,S. suis ST6; 30 μg/ml,0.40
same,1-hour treated/untreated OD600-ratio,S. suis ST6; 65 μg/ml,0.21
same,1-hour treated/untreated OD600-ratio,S. suis ST6; 130 μg/ml,0.06
same,1-hour treated/untreated OD600-ratio,S. pyogenes A486; 6.5 μg/ml,0.12
same,1-hour treated/untreated OD600-ratio,S. pyogenes A486; 13 μg/ml,0.13
same,1-hour treated/untreated OD600-ratio,S. pyogenes A486; 30 μg/ml,0.13
same,1-hour treated/untreated OD600-ratio,S. pyogenes A486; 65 μg/ml,0.11
same,1-hour treated/untreated OD600-ratio,S. pyogenes A486; 130 μg/ml,0.10
same,1-hour treated/untreated OD600-ratio,E. faecalis V583; 6.5 μg/ml,0.98
same,1-hour treated/untreated OD600-ratio,E. faecalis V583; 13 μg/ml,0.93
same,1-hour treated/untreated OD600-ratio,E. faecalis V583; 30 μg/ml,0.84
same,1-hour treated/untreated OD600-ratio,E. faecalis V583; 65 μg/ml,0.71
same,1-hour treated/untreated OD600-ratio,E. faecalis V583; 130 μg/ml,0.52
same,1-hour treated/untreated OD600-ratio,S. epidermidis HN1292; 6.5 μg/ml,1.04
same,1-hour treated/untreated OD600-ratio,S. epidermidis HN1292; 13 μg/ml,1.00
same,1-hour treated/untreated OD600-ratio,S. epidermidis HN1292; 30 μg/ml,0.96
same,1-hour treated/untreated OD600-ratio,S. epidermidis HN1292; 65 μg/ml,0.94
same,1-hour treated/untreated OD600-ratio,S. epidermidis HN1292; 130 μg/ml,0.87
